Test results from patent publication US20190071490A1 (BETH ISRAEL DEACONESS MEDICAL CENTER, published 2019).
Numbering of substitutions follows the chain as printed. Ends that are not written are not given here.

Columns and labels:
human α-CGRP 1-37 (WT) [1] = molecular target: T1, human α-CGRP 1-37 (WT) (human, C-terminal amide; N-terminal biotin when captured on the SA chip; 125I-labelled in the radioligand assay); assay: Biacore, 37°C, high-resolution two-part experiment
T1 construct: also called α-human
T1 peptide: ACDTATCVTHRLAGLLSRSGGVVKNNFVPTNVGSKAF
Description: (§1) Biacore assay for affinity determination. […] All Biacore assays were conducted in HBS-EP running buffer (10 mM HEPES pH 7.4, 150 mM NaCl, 3 mM EDTA, 0.005% v/v polysorbate P20). CGRP surfaces were prepared by diluting the N-biotinylated CGRP to a concentration of less than 0.001 mg/mL into HBS-EP buffer and injecting it across the SA sensor chip using variable contact times. […] Samples were typically injected for 1 minute at 100 μL/min and dissociation times of at least 10 minutes were allowed. […] An entire titration series (typically generated in duplicate) was fit globally to a 1:1 Langmuir binding model using the BIAevaluation program. This returned a unique pair of association and dissociation kinetic rate constants (respectively, kₒₙ and koff) for each binding interaction, whose ratio gave the equilibrium dissociation constant (KD=koff/kₒₙ).
(§2) High-resolution analysis of binding interactions with extremely slow off rates. […] The protocol described above was used with the following modifications.

[2] = molecular target: T2, human α-CGRP K35A (19-37) (human, also: N-terminal biotin when on the chip); assay: Biacore, 37°C, G1 Fab titrated over N-biotinylated peptide on chip
T2 construct: the entry already carries K35A
T2 peptide: SGGVVKNNFVPTNVGSAAF-NH2
Description: (§3) All Biacore assays were conducted in HBS-EP running buffer (10 mM HEPES pH 7.4, 150 mM NaCl, 3 mM EDTA, 0.005% v/v polysorbate P20). CGRP surfaces were prepared by diluting the N-biotinylated CGRP to a concentration of less than 0.001 mg/mL into HBS-EP buffer and injecting it across the SA sensor chip using variable contact times. […] Samples were typically injected for 1 minute at 100 μL/min and dissociation times of at least 10 minutes were allowed. […] An entire titration series (typically generated in duplicate) was fit globally to a 1:1 Langmuir binding model using the BIAevaluation program. This returned a unique pair of association and dissociation kinetic rate constants (respectively, kₒₙ and koff) for each binding interaction, whose ratio gave the equilibrium dissociation constant (KD=koff/kₒₙ).

[3] = molecular target: T3, human α-CGRP K35E (19-37) (human, also: N-terminal biotin when on the chip); assay: as above
T3 construct: the entry already carries K35E
T3 peptide: SGGVVKNNFVPTNVGSEAF-NH2
Description: as §3

[4] = molecular target: T4, human α-CGRP K35M (19-37) (human, also: N-terminal biotin when on the chip); assay: as above
T4 construct: the entry already carries K35M
T4 peptide: SGGVVKNNFVPTNVGSMAF-NH2
Description: as §3

[5] = molecular target: T5, human α-CGRP K35Q (19-37) (human, not fully specified); assay: as above
T5 construct: the entry already carries K35Q
T5 peptide: SGGVVKNNFVPTNVGSQAF-NH2
Description: as §3

[6] = molecular target: T6, human α-CGRP F37A (25-37) (human, not fully specified); assay: as above
T6 construct: the entry already carries F37A
T6 peptide: NNFVPTNVGSKAA-NH2
Description: as §3

human α-CGRP 25-38A = molecular target: T7, human α-CGRP 25-38A (human, not fully specified); assay: as above
T7 construct: residues 25-37 with an extra alanine added at the C-terminus (in the entry); also called 38A (25-38A)
T7 peptide: NNFVPTNVGSKAFA-NH2
Description: as §3

human α-CGRP 1-37 (WT) [7] = molecular target: T1, human α-CGRP 1-37 (WT); assay: as above
Description: as §3

[8] = molecular target: T8, human α-CGRP fragment 19-37 (human, not fully specified); assay: as above
T8 peptide: SGGVVKNNFVPTNVGSKAF-NH2
Description: as §3

[9] = molecular target: T9, human α-CGRP fragment 25-37 (human, not fully specified); assay: as above
T9 peptide: NNFVPTNVGSKAF-NH2
Description: as §3

[10] = molecular target: T10, human α-CGRP F27A (25-37) (human, not fully specified); assay: as above
T10 construct: the entry already carries F27A
T10 peptide: NNAVPTNVGSKAF-NH2
Description: as §3

[11] = molecular target: T11, human α-CGRP V28A (25-37) (human, not fully specified); assay: as above
T11 construct: the entry already carries V28A
T11 peptide: NNFAPTNVGSKAF-NH2
Description: as §3

[12] = molecular target: T12, human α-CGRP P29A (25-37) (human, not fully specified); assay: as above
T12 construct: the entry already carries P29A
T12 peptide: NNFVATNVGSKAF-NH2
Description: as §3

[13] = molecular target: T13, human α-CGRP T30A (25-37) (human, not fully specified); assay: as above
T13 construct: the entry already carries T30A
T13 peptide: NNFVPANVGSKAF-NH2
Description: as §3

[14] = molecular target: T14, human α-CGRP N31A (25-37) (human, not fully specified); assay: as above
T14 construct: the entry already carries N31A
T14 peptide: NNFVPTAVGSKAF-NH2
Description: as §3

[15] = molecular target: T15, human α-CGRP V32A (25-37) (human, not fully specified); assay: as above
T15 construct: the entry already carries V32A
T15 peptide: NNFVPTNAGSKAF-NH2
Description: as §3

[16] = molecular target: T16, human α-CGRP S34A (25-37) (human, not fully specified); assay: as above
T16 construct: the entry already carries S34A
T16 peptide: NNFVPTNVGAKAF-NH2
Description: as §3

human α-CGRP 1-37 (WT) [17] = molecular target: T1, human α-CGRP 1-37 (WT); assay: Biacore, 25°C, Fab over N-biotinylated CGRP on SA chip, high-resolution two-part experiment
Description: as §1, §2

rat α-CGRP (1-37) = molecular target: T17, rat α-CGRP (1-37) (rat, C-terminal amide; N-terminal biotin when captured on the SA chip); assay: as above
T17 construct: also called rat α (1-37); α-rat
T17 peptide: T1 peptide with A1S, D3N, N25D, K35E
Description: as §1, §2

Kd (human α-CGRP 1-37 (WT) [1]): 0.06 nM
Kd [2]: 1.33 nM
Kd [3]: 9.73 nM
Kd [4]: 0.51 nM
Kd [5]: 1.38 nM
Kd [6]: 95 nM
binding result (human α-CGRP 25-38A): no binding
Kd (human α-CGRP 1-37 (WT) [7]): 0.16 nM
Kd [8]: 0.16 nM
Kd [9]: 0.28 nM
Kd [10]: 0.38 nM
Kd [11]: 0.28 nM
Kd [12]: 0.79 nM
Kd [13]: 0.47 nM
Kd [14]: 0.53 nM
Kd [15]: 1.71 nM
Kd [16]: 3.04 nM
Kd (human α-CGRP 1-37 (WT) [17]): 0.042 nM
Kd (rat α-CGRP (1-37)): 1.22 nM
B1: antibody G1 Fab fragment (Fab, V domains shown)
VH: EVQLVESGGGLVQPGGSLRLSCAASGFTFSNYWISWVRQAPGKGLEWVAEIRSESDASATHYAEAVKGRFTISRDNAKNSLYLQMNSLRAEDTAVYYCLAYFDYGLAIQNYWGQGTLVTVSS
VL: EIVLTQSPATLSLSPGERATLSCKASKRVTTYVSWYQQKPGQAPRLLIYGASNRYLGIPARFSGSGSGTDFTLTISSLEPEDFAVYYCSQSYNYPYTFGQGTKLEIK
